Laboratory results published in the supplement of paper PMC10126150.
± gives the standard deviation of the averaged measurements.

Test system: ATP
Assay: switch fluorescence ratio, 500 uM ATP over buffer (Cy3 cluster intensity, sum of 5 cycles each) (fold (ratio)); higher = stronger signal-on switching upon ATP binding; sequences stand for … in TCGTCGGCAGCGTCAGATGTGTATAAGAGACAGTTTTTTTTTTTTTTTTTTTTTTTTT…TC
Details: aptamer strand: ATP DNA aptamer (quencher-CACCTGGGGGAGTATTGCGGAGGAAGG + anchor), 100 nM annealed; ATP concentration: 500 uM
Outline: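 Cy3-labelled switching-strand clusters on a modified Illumina MiSeq flow-cell were annealed to 100 nM quencher-labelled ATP aptamer and imaged first in selection buffer, then after 15 min with 500 uM ATP at 22 °C. NaOH stripping and re-annealing separated each of five buffer/ATP cycles, and clusters outside 100-1000 RFU were excluded. The fluorescence ratio sums target-cycle Cy3 intensity over buffer-cycle Cy3 intensity per cluster and averages it per switch-domain sequence.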
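Further: ATP exposure 15 min at 22 °C before imaging.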

Sequence	switch fluorescence ratio
ATCAGGCGGA	1 ± 0.045
ATCAGGGTGG	0.987 ± 0.032
ATCAGGGTTT	1.005 ± 0.0057
ATCAGTAAAA	1.01 ± 0.035
ATCAGTGATG	1 ± 0.046
ATCAGTGGTT	0.974 ± 0.013
ATCAGTGTGG	0.967 ± 0.038
ATCATACCGG	1 ± 0.035
ATCATACGGA	1.034 ± 0.0088
ATCATATGGA	0.985 ± 0.037
ATCATCGCTA	1.094 ± 0.0084
ATCATCGGGA	1.01 ± 0.013
ATCATGACTG	1.015 ± 0.005
ATCATGAGTC	0.972 ± 0.03
ATCATGCTGT	0.9976 ± 0.0017
ATCATGGGGT	0.984 ± 0.041
ATCATGGGTA	0.9757 ± 0.0069
ATCATGTGCA	0.9627 ± 0.0073
ATCATGTGGG	0.999 ± 0.018
ATCATGTGTA	1.01 ± 0.04
ATCATTGAGA	0.9972 ± 0.0043
ATCATTGGG	1.014 ± 0.008
ATCATTTGGG	0.997 ± 0.039

Sequence	switch fluorescence ratio
ATCATTTTTA	1.01 ± 0.02
ATCATTTTTG	1 ± 0.025
ATCCCAGGGT	1.89 ± 0.076
ATCCGAACGG	1.03 ± 0.048
ATCCGCGATT	4.88 ± 1.1
ATCCGCGGTG	1.18 ± 0.075
ATCCGGGCGC	1.08 ± 0.1
ATCCGTATGT	1.05 ± 0.014
ATCCTAGGGC	1.007 ± 0.0095
ATCCTCTTGC	1.09 ± 0.036
ATCCTTAAGG	0.961 ± 0.026
ATCCTTCTAA	1.05 ± 0.018
ATCCTTGATA	1.03 ± 0.016
ATCGAAAGGG	1.01 ± 0.054
ATCGAAGGCA	0.9862 ± 0.008
ATCGAATAGG	0.9872 ± 0.0022
ATCGAATCCT	1.09 ± 0.012
ATCGAATTTT	1 ± 0.061
ATCGAGCCGG	0.98 ± 0.049
ATCGAGTCTA	0.953 ± 0.017
ATCGAGTGCT	0.952 ± 0.016
ATCGAGTTAG	0.978 ± 0.012
ATCGCATTG	1.24 ± 0.34

Sequence	switch fluorescence ratio
ATCGCCAGGC	1.014 ± 0.0044
ATCGCCGGGG	1.02 ± 0.045
ATCGCGGGGT	0.979 ± 0.025
ATCGCTGGGT	1.01 ± 0.019
ATCGGAGCGG	1.02 ± 0.031
ATCGGAGGGA	0.986 ± 0.028
ATCGGATTAT	0.969 ± 0.047
ATCGGATTGG	1.03 ± 0.072
ATCGGCCATG	0.988 ± 0.011
ATCGGCTGTG	0.983 ± 0.022
ATCGGGAGGT	1.04 ± 0.061
ATCGGGCGTA	1.01 ± 0.044
ATCGGGGTC	0.983 ± 0.027
ATCGGGGTCA	1.01 ± 0.027
ATCGGGGTTG	0.958 ± 0.017
ATCGGGTTTG	0.977 ± 0.03
ATCGGTAACT	1.01 ± 0.032
ATCGGTAGGT	0.99 ± 0.019
ATCGGTCAGC	0.982 ± 0.022
ATCGGTGAAG	0.9925 ± 0.0058
ATCGGTTCGG	0.9934 ± 0.0053
ATCGTAATGG	1.04 ± 0.038
ATCGTACGGC	1.01 ± 0.026

Sequence	switch fluorescence ratio
ATCGTATTCA	1.01 ± 0.027
ATCGTGATCC	1.016 ± 0.0094
ATCGTGGGGA	1.012 ± 0.0075
ATCGTGTGGT	0.9829 ± 0.0092
ATCGTTAAGC	1.03 ± 0.022
ATCGTTCAAT	0.9983 ± 0.0046
ATCGTTTACG	0.994 ± 0.036
ATCGTTTGCA	1.02 ± 0.022
ATCTAATAGG	0.959 ± 0.018
ATCTAGATTG	0.982 ± 0.042
ATCTATATAG	0.9945 ± 0.0068
ATCTATGTTT	0.9872 ± 0.0041
ATCTCAATTT	0.967 ± 0.027
ATCTCTGGTT	0.966 ± 0.031
ATCTGAATGG	1.12 ± 0.17
ATCTGCTCTT	1.01 ± 0.04
ATCTGCTTGA	0.974 ± 0.042
ATCTGGGGTT	1.04 ± 0.015
ATCTGGGTAG	1.01 ± 0.03
ATCTGTATGT	0.968 ± 0.017
ATCTGTGAAC	1.05 ± 0.073
ATCTGTGGGG	0.9962 ± 0.0026
ATCTTAGTAA	0.9998 ± 0.0099

Sequence	switch fluorescence ratio
ATCTTAGTTA	0.999 ± 0.026
ATCTTATTTG	1.01 ± 0.033
ATCTTGCGGA	1.02 ± 0.05
ATCTTGGCTG	0.983 ± 0.03
ATCTTTCGAA	1.03 ± 0.026
ATGAAAAAAA	0.976 ± 0.12
ATGAAAACGG	1 ± 0.051
ATGAAAAGTT	0.993 ± 0.011
ATGAAAATTA	0.975 ± 0.025
ATGAAAGCGT	1.032 ± 0.01
ATGAAATAAA	0.9835 ± 0.0022
ATGAAATGTT	1.011 ± 0.0053
ATGAACTCAG	1.03 ± 0.037
ATGAAGAGAT	0.9886 ± 0.0064
ATGAAGGAGC	0.9917 ± 0.0046
ATGAAGGGTT	1 ± 0.029
ATGAATACAA	1.01 ± 0.014
ATGAATGAAC	1.03 ± 0.063
ATGAATTCTC	1.01 ± 0.078
ATGAATTGTT	0.974 ± 0.02
ATGAATTTTA	1 ± 0.031
ATGACCGATT	1.02 ± 0.049
ATGACCTCTT	0.985 ± 0.034

Sequence	switch fluorescence ratio
ATGACCTGGG	0.9769 ± 0.0049
ATGACTAAGA	1.006 ± 0.0034
ATGACTGATA	1.028 ± 0.0038
ATGACTTATT	0.968 ± 0.027
ATGAGAAAAG	0.991 ± 0.0095
ATGAGACAGA	0.999 ± 0.049
ATGAGATTTT	0.988 ± 0.015
ATGAGCTGAG	1.01 ± 0.035
ATGAGGGACT	0.9594 ± 0.0036
ATGAGGGG	1.01 ± 0.043
ATGAGGGGGA	0.997 ± 0.026
ATGAGGGGGT	1.03 ± 0.024
ATGAGGGGTA	1.01 ± 0.026
ATGAGGGTTG	1.04 ± 0.013
ATGAGGGTTT	1.01 ± 0.017
ATGAGTCATC	0.981 ± 0.034
ATGAGTGTGT	0.984 ± 0.015
ATGATAAATT	0.963 ± 0.04
ATGATAGTGA	0.991 ± 0.012
ATGATATTGA	0.99 ± 0.011
ATGATATTTC	0.961 ± 0.021
ATGATCTGAG	1.028 ± 0.005
ATGATCTGCT	0.946 ± 0.03

Sequence	switch fluorescence ratio
ATGATGAGGT	1 ± 0.017
ATGATGATGG	0.9858 ± 0.0096
ATGATGGATT	1.008 ± 0.0031
ATGATGGG	1.01 ± 0.017
ATGATGGGCT	0.9654 ± 0.0059
ATGATGGTTT	1.02 ± 0.032
ATGATGTTTG	0.981 ± 0.039
ATGATTAACT	0.986 ± 0.036
ATGATTACGC	1.06 ± 0.015
ATGATTAGCT	1.0032 ± 0.00021
ATGATTGGCC	0.9882 ± 0.0086
ATGATTTTGT	1.013 ± 0.01
ATGCAAAGGA	1 ± 0.043
ATGCAATGCT	3.19 ± 0.18
ATGCAATGGC	1.437 ± 0.012
ATGCAGAAAT	1.41 ± 0.83
ATGCAGCATG	1.021 ± 0.0038
ATGCAGGCGG	0.9811 ± 0.001
ATGCAGGTGT	1.23 ± 0.014
